Experimental data as given in a protein production outcome set (Wang et al. 2014).

Assay: label from the status in PepcDB records

Sequence	protein production
MAEKQKHDGRVKIGHYVLGDTLGVGTFGKVKIGEHQLTGHKVAVKILNRQKIRSLDVVGKIKREIQNLKLFRHPHIIKLYQVISTPTDFFMVMEYVSGGELFDYICKHGRVEEMEARRLFQQILSAVDYCHRHMVVHRDLKPENVLLDAHMNAKIADFGLSNMMSDGEFLRTSCGSPNYAAPEVISGRLYAGPEVDIWSCGVILYALLCGTLPFDDEHVPTLFKKIRGGVFYIPEYLNRSVATLLMHMLQVDPLKRATIKDIREHEWFKQDLPSYLFPEDPSYDANVIDDEAVKEVCEKFECTESEVMNSLYSGDPQDQLAVAYHLIIDNRRIMNQASEFYLASSPPSGSFMDDSAMHIPPGLKPHPERMPPLIADSPKARCPLDALNTTKPKSLAVKKAKWHLGIRSQSKPYDIMAEVYRAMKQLDFEWKVVNAYHLRVRRKNPVTGNYVKMSLQLYLVDNRSYLLDFKSIDDEVVEQRSGSSTPQRSCSAAGLHRPRSSFDSTTAESHSLSGSLTGSLTGSTLSSVSPRLGSHTMDFFEMCASLITTLAR	failed
MAELILNQRPYPRDLGKIVCVGRNYAAHAKELNNPIPSSPILFIKPASSAVPFGPVFSIPKDQGSVHHELEIAILIGKALSRASTEQVAESIAGIGLGLDLTLRDVQDQLKEKGHPWERAKSFDGACPLTEFVAVNLASEDEWQAIGLTLEKNGQFQQQGSSAEMLFPILPLIAHMSEHFSLQPGDVILTGTPAGVGPLEVGDSLSAKLSLEDNVLLTCDGVVI	not failed
MAENLRDSVVHRDIALLSFCAPVMLERLPSSFVKHIELWLSAAGLGIIFGVGYASGPSGPAFWRLIAVIAVGIGVVHGFIFWAVRRRQRQVRRQSIREIQQMLSDVLKNKLAAINMYLPEDADEEMVKQELDGVRASIEDIADEIENISEESIEGWKEHYSGAVERTTNL	failed
MAENVGSDSSEFESISSSQKSYLKNCPFAGHEALPTKSTDSDNTEVLGNQISPAVVKTPILSFSSPTSLDSINDDVFRTPPENASLSSAAESEPRVGVSEIKLQGGSNLTTPFSMAETTLVSSSPSLPAENVRVSESNLKSSSSTAKTTPVSASPSVNARVSESNLNSSSSTTPVSVSPSEKVRVFETTPVSASPSEKVRVFETKCHSDSGDSVPLSSSPPSVAADDVRVPAKHLDSDSSPPTAIGRTMVLVKQRISASDNSASSSASEGTKVSKTENSGEVLPFKEIIEALLRNSGEKLNERDDKVSYVEILKQCGLKFPK	failed
MAEPKFTSFTTADFINDVDMELFIDAVEKTAPVWVKEMKSRGLLKFSMNRVWNKGEVFRVVMTYEYKDRASFEANIAYLEDTFGKNPVFLQLVTTAKFTTSRCLVVMEV	not failed
MAEPVDVLVLGGGPAALCIASELNQWGVAVGCIAPDPVDASWPNTYGIWADELKMVGLEHLLEHRWSDTVSFFGAGGSTAQDQSHAHGIDYGLFDRAELQRYWLERADGVVWHQDTAERVDATSATTSVSCVSGTTLQARLVIDASGSRTPHIRRPDQGPVAGQAAYGVVGRFSQPPIEAGRFVLMDYRCDHLSAAQRQEPPTFLYAMDLGDGVFFVEETSLALAPGFSYDVLKQRLQQRLDQRGVAITEVIHEEFCLFPMNLPLPDRSQPLLAFGGAASMVHPASGYMVGSLLRRGPDLAKALAEALANRNLGSAALAQRGWQALWPIELVLRHQLYQFGLGRLMGFNEALLRTHFATFFSLPREEWFGFLTNTLPLPRLMGVMLRLFALSPWELRRGLVLGAAMDQLPTFDQSSG	failed
MAERTSDPAANDRFYFRQLLSGRDFAGADPIAQQMRNFAYFIGDRETGEAVVVDPAYAADELAAALEADGMRLAGVLVTHHHPDHVGGSMMGFTLKGVAELLEHRSVPVHVNSHEADWVSQVTGIARSELSAHEHGDTISVGAIDIELLHTPGHTPGSQCFLVDGRLVAGDTLFLEGCGRTDFPGGNVDDMFRSLQALAKLPGDPTVYPGHWYSAEPSAPLEEVKRSNYVYRASNLDQWRMLMGG	failed
MAESKRDYYEVLGVSKDADDAAIKKAYRALAKKYHPDMNPGDAEAEKKFKEASEAYAVLSDAEKRRQYDQFGHAAFEGGAGGAGGFGGFDFNGADFGDIFGDIFGDLFGGGGRRGGRANNGPMKGANIRKSIRITFEEAVFGCKKELEVILKDPCTTCGGTGAKPGTSPETCPKCGGKGQVVYTSQSFFGTVQNVQTCPNCGGSGKVIKEKCTSCSGTGYTSSKKKIEVTIPAGIDNGQSVRIREKGEPGTNGGPRGDLLVEVNVSRHPIFQRQDMHIFSTVPISFAQAALGGDVKIQTVDGAVIYNVKPGTKTDTKVRLKGKGVPSLRNSAVRGDHYVTLVIQTPEKLSAEAKEALRRFDELSGNSLHQNDSNPEKSEKKTKRKGFMDKVKEAFEGED	failed
MAESQALSDDIGFLLSRVGGMVLGAVNKALVPTGLRVRSYSVLVLACEQAEGVNQRGVAATMGLDPSQIVGLVDELEERGLVVRTLDPSDRRNKLIAATEEGRRLRDDAKARVDAAHGRYFEGIPDTVVNQMRDTLQSIAFPTFVE	not failed
MAEVHNQLEIKFRLTDGSDIGPKAFPDATTVSALKETVISEWPREKENGPKTVKEVKLISAGKVLENSKTVKDYRSPVSNLAGAVTTMHVIIQAPVTEKEKKPKGDPKMNKCVCSVM	not failed
MAEWSKAPDSSSGLRKRAWIRPWQREHMTIESVDHETRSMTQRFTVPEFFEGYKMITSTTKVNDSAIGLYSLVDISVEYDKTGPEIKDLDQVQFLVDYINELVLRTGGQLLRRLK	failed
MAFELSPSDLEPLLQGACFFGSGGGGTMISARHLAANFRKGDYYPTDKVRVVDVDEATDGDCVMVAYMGAPDAINQVQWPNGPVEAALAARQRLESQGRKLAYVVAPESGALGFVVASLVAAKLGLAVVDADGAGRAVPSLPMLTYAAAGVPPTPAFLAGESGLCVELGVRMPPPDGQRREDISTVVEQMLRPILTNPQFGQFGGLAMWMMSPAQLGGALPVRGTLSRALKLGRALQDGKVKTAEAMLDFLRRELDIKGKLLFGPATLASSEVSTAGGFDLGKVVLEDGERRCTVLYQNESLLAWDSALSHPLATAPDAISYFVEGEGQHVFSNGDLSGNDHGLDPSVRGRKAAVIALPAAAPLSEGLILQSFADELAQLGYLGPYAPVDAGREGARLEHHHHHH	not failed
MAFIAVHDGLTGLHNRTFLTDHFDTLIKGAHRRRERLAVVQLDLDRFKQINDTLGHAAGDYVLVVTAQRMRDSCRASDLCARLGGDEFVMILNGAGSTEDINMLARRILAHINEPIVFQGTTILPGASGGIAVYPIDADNAQDLLVHADLALYSAKKLGGGNFSFFSEELRRELDYRKQLEHDIKVAISERAFQVYFQPQVSLTDGTISGIEALVRWNHHERGMISPGEFIPVAEKCGFMPEIGRIVIGKAINEAAEWNRAGIAFGRLAVNVSGTELREHDFDAFLFETLEKAGLPPQKLSLEIVESVILDDEKTGIAAKLRHIRAAGIHLELDDFGTGYASLSHVNPNEIDRLKIDRRFVQNIHENGDNSKIVRAITELARGLGISIVAEGAETEAELDSLMAIGCDQVQGYSIAFPMPQDKALEWLTARMPKKAKLRVLQGSLA	failed
MAFLIISLIIMLIGLLRLKINKRSIIGGIFLASGLILSLASLFFELLNLIYLYLPSGDFATLIIAYGILPLIFLLVCGYFIFNSKTMRTKEGKSATAKLSALFGLNLLIAFPALFMLFTFSTKTIPQIIWYILLYILLIDIILCFLFAAYILYSWMSQMIPLQKKIDYIIILGSGVRSEEVPPLLKSRLDKGIEYYQKNPTAKFVVSGGQGADEPVSEAFAMRKYLHSQNIPNHQILFEDKFTTTYENMLFSKRIINEDWSDKEMPPSIIFSTNNYHVLRGSLYAQRVKLKAQGVGGTHSTLFLTYGLNS	failed
